The source of these data is PMC10200060 (2023).

T1: human recombinant HMGB1 protein (high-mobility group box-1) (human, UniProt P09429 1-215)
T1 chain: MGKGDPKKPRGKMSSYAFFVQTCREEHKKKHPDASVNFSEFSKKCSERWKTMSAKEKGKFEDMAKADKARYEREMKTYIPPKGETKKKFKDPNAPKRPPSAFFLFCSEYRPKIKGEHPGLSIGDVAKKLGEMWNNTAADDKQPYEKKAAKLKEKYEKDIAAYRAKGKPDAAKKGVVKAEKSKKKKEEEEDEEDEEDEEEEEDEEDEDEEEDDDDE

B1: lactoferrin-glycyrrhizin conjugate Lf-GL (1:15) (other)
chain: GRRRSVQWCAVSQPEATKCFQWQRNMRKVRGPPVSCIKRDSPIQCIQAIAENRADAVTLDGGFIYEAGLAPYKLRPVAAEVYGTERQPRTHYYAVAVVKKGGSFQLNELQGLKSCHTGLRRTAGWNVPIGTLRPFLNWTGPPEPIEAAVARFFSASCVPGADKGQFPNLCRLCAGTGENKCAFSSQEPYFSYSGAFKCLRDGAGDVAFIRESTVFEDLSDEAERDEYELLCPDNTRKPVDKFKDCHLARVPSHAVVARSVNGKEDAIWNLLRQAQEKFGKDKSPKFQLFGSPSGQKDLLFKDSAIGFSRVPPRIDSGLYLGSGYFTAIQNLRKSEEEVAARRARVVWCAVGEQELRKCNQWSGLSEGSVTCSSASTTEDCIALVLKGEADAMSLDGGYVYTAGKCGLVPVLAENYKSQQSSDPDPNCVDRPVEGYLAVAVVRRSDTSLTWNSVKGKKSCHTAVDRTAGWNIPMGLLFNQTGSCKFDEYFSQSCAPGSDPRSNLCALCIGDEQGENKCVPNSNERYYGYTGAFRCLAENAGDVAFVKDVTVLQNTDGNNNEAWAKDLKLADFALLCLDGKRKPVTEARSCHLAMAPNHAVVSRMDKVERLKQVLLHQQAKFGRNGSDCPDKFCLFQSETKNLLFNDNTECLARLHGKTTYEKYLGPQYVAGITNLKKCSTSPLLEACEFLRK
modifications: glycyrrhizin (oxidised with sodium periodate) coupled to amines of Lf by Schiff-base reaction and reduction with NaBH3CN; ratio Lf:GL 1:15 as printed; modified residues not identified
B2: lactoferrin human (Lf) (natural protein)
chain: GRRRSVQWCAVSQPEATKCFQWQRNMRKVRGPPVSCIKRDSPIQCIQAIAENRADAVTLDGGFIYEAGLAPYKLRPVAAEVYGTERQPRTHYYAVAVVKKGGSFQLNELQGLKSCHTGLRRTAGWNVPIGTLRPFLNWTGPPEPIEAAVARFFSASCVPGADKGQFPNLCRLCAGTGENKCAFSSQEPYFSYSGAFKCLRDGAGDVAFIRESTVFEDLSDEAERDEYELLCPDNTRKPVDKFKDCHLARVPSHAVVARSVNGKEDAIWNLLRQAQEKFGKDKSPKFQLFGSPSGQKDLLFKDSAIGFSRVPPRIDSGLYLGSGYFTAIQNLRKSEEEVAARRARVVWCAVGEQELRKCNQWSGLSEGSVTCSSASTTEDCIALVLKGEADAMSLDGGYVYTAGKCGLVPVLAENYKSQQSSDPDPNCVDRPVEGYLAVAVVRRSDTSLTWNSVKGKKSCHTAVDRTAGWNIPMGLLFNQTGSCKFDEYFSQSCAPGSDPRSNLCALCIGDEQGENKCVPNSNERYYGYTGAFRCLAENAGDVAFVKDVTVLQNTDGNNNEAWAKDLKLADFALLCLDGKRKPVTEARSCHLAMAPNHAVVSRMDKVERLKQVLLHQQAKFGRNGSDCPDKFCLFQSETKNLLFNDNTECLARLHGKTTYEKYLGPQYVAGITNLKKCSTSPLLEACEFLRK
B3: lactoferrin-glycyrrhizin conjugate Lf-GL (1:10) (other)
chain: GRRRSVQWCAVSQPEATKCFQWQRNMRKVRGPPVSCIKRDSPIQCIQAIAENRADAVTLDGGFIYEAGLAPYKLRPVAAEVYGTERQPRTHYYAVAVVKKGGSFQLNELQGLKSCHTGLRRTAGWNVPIGTLRPFLNWTGPPEPIEAAVARFFSASCVPGADKGQFPNLCRLCAGTGENKCAFSSQEPYFSYSGAFKCLRDGAGDVAFIRESTVFEDLSDEAERDEYELLCPDNTRKPVDKFKDCHLARVPSHAVVARSVNGKEDAIWNLLRQAQEKFGKDKSPKFQLFGSPSGQKDLLFKDSAIGFSRVPPRIDSGLYLGSGYFTAIQNLRKSEEEVAARRARVVWCAVGEQELRKCNQWSGLSEGSVTCSSASTTEDCIALVLKGEADAMSLDGGYVYTAGKCGLVPVLAENYKSQQSSDPDPNCVDRPVEGYLAVAVVRRSDTSLTWNSVKGKKSCHTAVDRTAGWNIPMGLLFNQTGSCKFDEYFSQSCAPGSDPRSNLCALCIGDEQGENKCVPNSNERYYGYTGAFRCLAENAGDVAFVKDVTVLQNTDGNNNEAWAKDLKLADFALLCLDGKRKPVTEARSCHLAMAPNHAVVSRMDKVERLKQVLLHQQAKFGRNGSDCPDKFCLFQSETKNLLFNDNTECLARLHGKTTYEKYLGPQYVAGITNLKKCSTSPLLEACEFLRK
modifications: glycyrrhizin (oxidised with sodium periodate) coupled to amines of Lf by Schiff-base reaction and reduction with NaBH3CN; binding ratio Lf:GL 1:10 (1:9.6 by MALDI-TOF, 86,727.3 Da); modified residues not identified
B4: lactoferrin-glycyrrhizin conjugate Lf-GL (1:4) (other)
chain: GRRRSVQWCAVSQPEATKCFQWQRNMRKVRGPPVSCIKRDSPIQCIQAIAENRADAVTLDGGFIYEAGLAPYKLRPVAAEVYGTERQPRTHYYAVAVVKKGGSFQLNELQGLKSCHTGLRRTAGWNVPIGTLRPFLNWTGPPEPIEAAVARFFSASCVPGADKGQFPNLCRLCAGTGENKCAFSSQEPYFSYSGAFKCLRDGAGDVAFIRESTVFEDLSDEAERDEYELLCPDNTRKPVDKFKDCHLARVPSHAVVARSVNGKEDAIWNLLRQAQEKFGKDKSPKFQLFGSPSGQKDLLFKDSAIGFSRVPPRIDSGLYLGSGYFTAIQNLRKSEEEVAARRARVVWCAVGEQELRKCNQWSGLSEGSVTCSSASTTEDCIALVLKGEADAMSLDGGYVYTAGKCGLVPVLAENYKSQQSSDPDPNCVDRPVEGYLAVAVVRRSDTSLTWNSVKGKKSCHTAVDRTAGWNIPMGLLFNQTGSCKFDEYFSQSCAPGSDPRSNLCALCIGDEQGENKCVPNSNERYYGYTGAFRCLAENAGDVAFVKDVTVLQNTDGNNNEAWAKDLKLADFALLCLDGKRKPVTEARSCHLAMAPNHAVVSRMDKVERLKQVLLHQQAKFGRNGSDCPDKFCLFQSETKNLLFNDNTECLARLHGKTTYEKYLGPQYVAGITNLKKCSTSPLLEACEFLRK
modifications: glycyrrhizin (oxidised with sodium periodate) coupled to amines of Lf by Schiff-base reaction and reduction with NaBH3CN; ratio Lf:GL 1:4 as printed; modified residues not identified

The target in this assay is T1, human recombinant HMGB1 protein …. Kind of assay: SPR.
Usually koff stands for a measure of how fast the partners let go of each other. As to B1, the koff was found to be 0.000965 s⁻¹.
To B2 belongs 0.0134 s⁻¹.
For B3, the off-rate (koff) was determined as 0.000311 s⁻¹.
To B4 belongs 0.00158 s⁻¹.
